In paper PMC10501182:

Target: Protein A (ProA)-tagged INTAC (human) (UniProt Q8N201)
Assay: pull-down; in vitro; ProA-tagged INTAC incubated with the indicated purified subcomplexes and immobilised onto IgG resin, washed, SDS-PAGE and Coomassie blue staining; some lanes with DSIF, NELF, a DNA-RNA scaffold or a PP2A inhibitor added

stoichiometry N: 1
Substance: human RNA polymerase II overexpressed in Expi293F cells (from UniProt P24928 1-1970; P30876 1-1174; P19387 1-275; P52435 1-117) (complex)
